# In US20110113865A1, “USING CARDIAC TROPONIN FOR MONITORING ANTI-ANGIOGENESIS THERAPY” (priority 2008, published 2011):
# B1: NT-proBNP: N-terminal pro peptide of proBNP, 76 amino acids (protein, UniProt P16860 27-102, looked up)
# NT-proBNP: HPLGSPGSASDLETSGLQEQRNHLQGKLSELQVEQTSLEPLQESPRPTGVWKSREVATEGIRGHRKMVLYTLRAPR
# modifications: NT-proBNP
# notes: N-terminal pro peptide of proBNP, 76 amino acids
# Key:
# acute coronary syndromes = settings: treated patients; Annals of Oncology 2007; cited from earlier work
# [1] = Smith 2000; cited from earlier work
# [2] = 48 hours at room temperature or at 4° Celsius; cited from earlier work
# [3] = tested on: troponin T and/or NT-proBNP; test: Levels of troponin T and/or NT-proBNP before and during therapy in 27 patients; format: in vivo, human
# Text: Examples are shown herein below.
# cardiovascular system = settings: human, in vivo
# Procedure: Three years later, advanced colorectal cancer is diagnosed necessitating a suitable cancer therapy. The left ventricular ejection fraction (LVEF) is determined by echocardiography (40%) indicating a minor systolic dysfunction. Moreover, the amounts of a troponin T (12 pg/ml) and NT-proBNP (510 pg/ml) are determined in a sample of the patient. The patient is subjected to a cardiac stress test showing that a region of the posterior myocardial wall has a dysfunctional contractility (reversible perfusion defects). Coronary angiography is carried out indicating 80% stenosis of the artery that supplies the region of dysfunctional contractility with blood. Two weeks after successful revascularization of the affected myocardial regions, troponin T (6 pg/ml) and NT-proBNP (180 pg/ml) are determined again. A therapy with VEGF-inhibitors is started; troponin T and NT-proBNP are measured monthly. During the therapy with VEGF-inhibitors the levels of these two biomarkers remain stable. Also, the therapy is effective indicated by a reduced tumor size as well as by reduced CEA levels (carcinoembryonic antigen). […] Examples are shown herein below.
# troponin T = settings: human, in vivo
# NT-proBNP = settings: human, in vivo
# [4] = tested on: metastatic colorectal cancer; settings: cited from earlier work
molecule,measurement,setting,value
CNC(=O)c1cc(Oc2ccc(NC(=O)Nc3ccc(Cl)c(C(F)(F)F)c3)cc2)ccn1 [sorafenib],patients with induced acute coronary syndromes,acute coronary syndromes,2.9%
"BNP: Brain Natriuretic Peptide, active hormone, 32 amino acids",in-vivo half-life,[1],0.333 h
same,concentration loss on storage,[2],at least 20%
Bevacizumab: monoclonal antibody against the vascular endothelial growth factor (VEGF),patients in whom the levels of the markers remained unchanged (no significant increase),"[3]; 27 patients, serum, before vs during therapy",more than 80%
same,change of the measured markers (Troponin T and NT-proBNP),"[3]; patient 4208, day 13 vs day 57 after therapy start",Significant increases
same,adverse side effects on the cardiovascular system,cardiovascular system,no adverse side effects on the cardiovascular system
same,change of troponin T during treatment,troponin T,further increase of troponin T
same,NT-proBNP level,NT-proBNP,1916 pg/mL
same,survival,[4],significantly improves survival
B1,in-vivo half-life,[1],2 h
